Measured values as given in the DeepSol protein solubility set.

assay: soluble on expression in E. coli; label from the status in PepcDB or PDB records

Soluble on expression in E. coli, not soluble:
MGSDKIHHHHHHMPASKIYLLDYGWLGGDIGWFLPGQLGGAMTNSERNPRRDWVEIPITGALIDHPDARILFDTGIAPDAMKTHERGLMEAFPITKMDDQNHIENQLKLIGLKPEDIDFVVISHLHLDHIGQAAVFKDSHVPIIVQKKELESALSLIWQGKSGAYDYSDLLPLKGAAWMPLDDPVFEIVDGVYAEFTGGHTAGHQVLTVKTEKGSMYTLTGDFLHLPKEYDVEAKGWLLSNATEWNSYIKKMKIREKARKQKLIISHDPGIWDKYPHAPKFVE, MGSDKIHHHHHHMPDKSLKKPFVHLIGAGPGDPGLITVKGRESLGRADVVIYDYLANDDLLRFARPDAELIYAGKIGGHHNREQWQINALLVEKALAGNVVARLKGGDSFVFGRGGEECEALVAAGIPFEIVPGVTAGIGVTAYAGIPLTHRGVTTSVTFVTGHEGHDKEVSQIDWEGLSLGSGTVVFYMGIKNLPQITANLMAHGRPPETPVALIRWGTRPEQEVLTGTLADIAEQARRTGFRAPAITVVGEVVRLREKLRWFDNRPLFGTSILVTRAADQAGEFGAMLGALGARVLECPTIAIVPPESWDNLDAAIASLDRFHWAVFTSVNAVRFFFERLAAAGKDSRALGNCRVCAVGPKTAAALAPFGIRPDLIPADYKGEGVVEVFRSEEIAGKRIIFPKGDRARDVIPQGLAELGGEVTAPVAYRNVTPDSLPAGVIAELEERRITCVTFTSSSTVENLAAILGENRFLHLLKGVTIAAIGPITARTCRELGLEVHVEPSKYTLAAMTDALVDFFSRSK, MGSDKIHHHHHHMPEILINKPVEDELVESYLLYSMSVIVGRAIPDVRDGLKPVQRRILYGMYELGLKHNSPTKKSARIVGEVMGKYHPHGDAPVYDALVRMAQPFTMRYPLIEGQGNFGSIDRDPPAAMRYTEARLTRLAEEMLEDIEKNTVNMIDNFDGTLKEPEVLPSKVPNLIINGASGIAVGMATNIPPHNLSETVDALIYLIDHPEATVEELMQFIKGPDFPTGAVVVNASELKKVYEEGRGRIIVRGKVHVEDGKRVKRIVITEIPYGVSKAGLIEQIAKIAKDDESLPIRNIRDESDKRGMRIVIEIPKDANEEVIINNLYKRTALQDYFNVQMLVIDKHKRPRLMNLKGLMEAFLEHRFEVIRRRARYEYEQYTRRAHVVEGLLKAARAIGVVVDIVRNSKDVESARQSLMETLEITEEQAKAILDMRLSRLTSLEIENLQNEYSDLVRKISEVKEILEKDEKVKEIMKKEFLYLKQQYGDPRRTEVTDQSIEYNEEELIVEEDVVITLSHKGYLKSTPLNSYRSQKRGGKGITVSKLSEDDEVEFVVVAKNTSSTLFITNLGRAYVLKNYQLETTGRNTRGRHITAFLNLEDTEKIVALASLNGEGRDLVIATKSGKIKRTALKEFENATSNRGVRAIKIEPGDEIVSARVVNSEKETLIVATKMGMAIRFPVSDVRRMGRNAAGVQAIKLQPGDEVVSVDVIPPGEEGEILTVTEKGFGKRTPVQLYRIQRRGGTGLRNISDVNKTGYVVAVRYVRGDEEIVVVTRNGMMIRFPVSEIGVIGRVTKGVKLIELGDDTISKVAVVKD, MGSDKIHHHHHHMPFITKISTQKKNTERFNIFLDDKYAFSVDADVLVKFELKKGKELDDLDIIEIQYGDEVKKGFNRALDFLSYRMRSTKEVEDHLKKKETSPPVIAEVIHRLNDYKYLNDQEFAAAYVSTHKKTNGKGPDVLFRELRAKGIDDDTIKEALSSFSFEDQTREAVKHVEKLLKKDKKLSTKELKQRAQLQLQRKGFSFDVISAAMDQIEYENDEDTEKEALRLHAEKAFRKYRYDGSYESAMKVKQFLFRKGFSLDLIEQLLQEEEY, MGSDKIHHHHHHMPGSQQSLPLAMVRGQALNSMPVDLFIPPEALEVFLETFEGPLDLLLYLIRKQKLDVVDLPIQQITQQYLLYIEILTEARIELAADYLVMAATLAEIKSRLLLPKMASEDDEEEDPRVVLIRQLKAYEVIKQAAVDIDTLPRIERDVFQASVSAAPDIKPITVPPEVSLVDIARAFGEVLKRIDANEDHHVKREHLSTRERMSQILAKLSSTEYIGFECLFDVSEGRAGVVVSFLALMELVKELLVELVQNEPFSPIYVKAY, MGSDKIHHHHHHMPIDEWLVLNRIGIFENPSLRRYVSPFPPPELMGITSGLQSETGFAAHGADIYAALALASTIPITEYRHILDFGCGCGRLARMLKGHPHKISGCDIDLRHVKWIGQSLDFMNVKLSSVRPPIPFADDEMDAVISVSIFTHLTENSQDDFLAELFRVTRPGGTLFLTVHGAQALKRACHEQPIRHMLDMDEGRFRKAQQAFNQNKHGFVLQFGHLTTKPEKAFYTPRAIFRRIRDSFSRKTINMPFEYGIAFHPESYIREHWSKWFDILDYRHGAIHQFQDIVVLSPKK, MGSDKIHHHHHHMPIKVSPVAGSRFYIGSAPVDVPDTDVTEADFSAVTWIEVGQYETMGNSGDSAQGNTVNLLNRRRTYNWKGSRQAPQRSDNFALNTSDPGQLAMIAAEATDFNYPFKVELNGAPIPKSATAIITIASPGVVTWTGHNLAANTAVKFSTTGALPTGLTAGTSYYVKTVLDADTFTLSATKGGPVIATTGTQSGTHTATTIPSGPQRLFMGQVLAAEEGMGGANNAQMLNCTVLPNTNYVRVAALG, MGSDKIHHHHHHMPLERLNFLGLRNLAALDMRPGPGINLITGANGSGKTSLLEGMHVLGMARSFRTQKLKHAIAHDADAVTLHGRVAGDPPVALGVRRARDASELEIRLDGERGVRVARLAEALPLQLINPDAFRLLEGSPAARREFLDWGVFHVKHEFFEAWRRVRRALKHRNALLRHDRIDARSMRVWEQELAHWSELLDALRSEYMAQFAKAFEDTLHELLPLSGLSLRYYRGWDKQRGLLEVLEGGRDTDRQMGFTQQGPQRADLRLRIGKRAAVEELSRGQQKLVVSALKLAQGRLLDELTGRTCVYLIDDLPAELDVTHRRIFCHWLERLRCQVFITSVEREALANAWQSETDVAMFHVEHGRLLTE, MGSDKIHHHHHHMPLLDIRNLTIELDTPEGTVKVLEKVSLTINPGEIHGLVGESGSGRSLLAKAILGVLGPNWHIIADRMMWDGKNLLEMSSKQRRCLMGSEMAMIFQDPSGSLDPVKTIGSQLIEAMVPNKNIPFWRRGKATYLNAQKWLHKVGIKKPKQLMKCYPWELSEGECQKVMIAMAVANHPKLLIADEPTNSMELNTQAQIFRLLSQLNQLQNVSILLVSHELETMVHWCDNLTILYSGQVMESGPVSEMVAMPYHPYTRALLKNLPDHTEKMRHKANLPTLQGSSPSLQHLPAGCRLGPRCPEAQRQCVKQPNLEHIKDRYFACHFPYQSEQEDDDAIA, MGSDKIHHHHHHMPLLIDIRKLTLITRLIQDGAEQVADSLATLAGVDAAVEIKSLSFVQPEDIATEMGGGTIYSARVRLTEPPYGVFLMTFETETAAEIAELMTGSSVEDGFTQLHESALQEMCNILTSGFIDGIANTLNATINMGTPTVVQDDATEIADKALSHVRRDSLTIVLDSLVDIKESDVAFSLRIFLIPDPGSFVHLIDQLDYDTDRETHISADTDAVKELDMSGDADALDAFDSSK, MGSDKIHHHHHHMPLTRERTDMSNLLSISDLSITFDNGPRVVDGLSFSIDKGQTLALVGESGSGKSVSALSILRLLDERHAAYPAGHILYKGEDLLQAQEKRLRQIRGRHISMIFQEPMTSLNPLHTVEKQISETLELHKGMRGPQARKRCLELLELVGIPAPETRLKSYPHQLSGGQKQRVMIAMALANEPDLLIADEPTTALDVTVQKQVLELLKSLQQKLGMAVLLITHDLSIVRRYADYVVVMERGKMVEQGATETLFRSPSHTYTRKLIDAEPPEHPLPAANGTETLMTVDNVNVHFPIRKTMLGKVKESFHAVQDASFELRAGETLGIVGESGSGKTTLGHALLKLTPSTGTFSLCGTELSALSQKAFRPWRRRVQIVFQDPFGSLSPRMSVEEIIREGLEIHEPGSSGQHEARVIQALKDVGLDPDARHRYPHEFSGGQRQRIAIARALVLQPDLMILDEPTSALDRTVQKQVIELLREIQARYRLSYIFISHDLAVVRALSHKLLVLRQGRIVEYGDAETIFREPQQPYTRELLNAAFFYQSTTN, MGSDKIHHHHHHMPMRKEQQSRPDLRVLKSLMVCATIAASLILHSPSLMAAEEATGATSTAPSACSINPSEKLKNLFTEVKQYLGIRYRFGGDTPSGFDCSGFVRFMFNKEFNVNLPRSSREMATIGTRIDRNELRPGDLVFFKNAEDRINHVGIFVGNDTFVHSSLSKGITRDTLNESYYSKRFATGVRILDIQGNRIPDDFNNLFDESNNGNSPS, MGSDKIHHHHHHMPQDTISVSLLDSRIQASRPNYYNPLLVYKTAKIKVNKDAASYKILNLTVNNYEKQIETLEKENGNGEDQFGKEKTLLKTAMSNFFNSSEESLKSADLFIYKDKPEELKNYLKVHRHTFVVLINTEGDASDDGLKIYKDDYNKFKKPSTFFVFSTKEQEIKELFKDKGNTEKERNIAVYSNNKDNLHLKFISQYLHQASIFHAVNPYGMPLAATPLVDDTVIGKLRTAKINFYSLLNETGLDGVPAFKEGVDLAGGAIDEQFTYHYIKNEAIIELIRIWNKNNRQNSKLSALQLSGARDNAYTSAIECLLKRFVDRGLIIEYKNLRLTLSPTPQLKLELSVNITYNFSINAVALVITTQDIVDYQNSLSA, MGSDKIHHHHHHMPRPRRSQVSVEDTPMYHCCSRVVRRAYLCGDDKFSGKNYDHRRGWVEAQLLKLAEVFAIDVAAYAVMSNHLHVVLSIDIYQANRWTGIEVINQWHLLFKGTDITQKFAKGETLEDYEALELTYTIALYRSRLSDISWFMRALNEPIARRANEEDECTGRFWEGRFKSQALLDEAAVLACMVYVDLNPIRSTIAKTPETSDFTSIKRRITAALNGTQPKALLPFVGNERKDMPKGLTFHLKDYLQLVEDTGKAVRNDKRGCISPNSHSILNRLNIPADNWLKIINEFGKLFKGPVGTLQELTAYCEHLEKQRRHYCHACQHLAAS, MGSDKIHHHHHHMPVYLYYGEDTYSLNQKIDHLVNQNVHAEWKDFNYIKLSGNEKNIAAKVFTEVMTLPFGEGNKIVHTDSDHLIGSLSNEDNNQELENQLSRIPASNILLITSNKKPDSRRTVVKTILKYAQQEEFPLVPCWDKKGIVNLIGKYAAIHQVKFTPDVTDYLVEAIGNNTARVDSEFAKLAVYASEKIISLEEIKQLVSNHNTDYQKLTIAMLRNHSNLAIAQVDKLLDSNEHPLKIVATLTSFFRTWLITKAGVEARLSDIKIAEIAEVKNPKRLYYLKDEIKFVGVQKLKNSLTLLLQLETELKSGTNNLISRIIEICMI, MGSDKIHHHHHHMPYPKKVTIKEVGPRDGLQNEPVWIATEDKITWINQLSRTGLSYIEITSFVHPKWIPALRDAIDVAKGIDREKGVTYAALVPNQRGLENALEGGINEACVFMSASETHNRKNINKSTSESLHILKQVNNDAQKANLTTRAYLSTVFGCPYEKDVPIEQVIRLSEALFEFGISELSLGDTIGAANPAQVETVLEALLARFPANQIALHFHDTRGTALANMVTALQMGITVFDGSAGGLGGCPYAPGSSGNAATEDIVYMLEQMDIKTNVKLEKLLSAAKWIEEKMGKPLPSRNLQVFKSS
